In the RNAGym collection of RNA variant scans (doi:10.1073/pnas.2313332121):

B1: TPR t1 (parent)
chain: GACCAAUCUGCCCUCAGAGCUCGAGAACAUCUUCGGAUGCAGAGGAGGCAGGCUUCGGUGGCGCGAUAGCGCCAACGUCCUCAACCUCCAAUGCAUCCCACCACAUGAUGAUGCCUGAAGAGCCUUGGUUUUUUG

Variants of: B1
Experiment: polymerase ribozyme fitness, log enrichment relative to wild type (log ratio); higher = more active; in vitro selection for triplet polymerase activity
Outline: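 Mutant libraries were PCR-built and transcribed for each subunit of a heterodimeric triplet polymerase ribozyme and selected for one round in triplicate at −7 °C, frozen, before gel excision of extended constructs and streptavidin-bead capture. Input and output libraries were Illumina-sequenced, keeping genotypes with ≥10 input reads and ≥1 read per output. Fitness is a logarithmic ratio of genotype to wild-type enrichment, in base 2, using inverse-variance-weighted replicate averages.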

| Variant | polymerase ribozyme fitness (log ratio) |
| --- | --- |
| A6U C8A A37G G61U C98A | -3.75 |
| U7A C8A C13U C56U G61A C79U G120A | -4.91 |
| A6C A24G A26G U87G U112C A121G | -0.944 |
| A6G C15U C49A C53A G71U U78A | -0.614 |
| A6U G19U A121U | -1.67 |
| U7A A27U G48U U87C G120U | -2.16 |
| A6U G58A A83U U106A | 0.545 |
| U7A C64U C89G A91U C97U C115U | -2.72 |
| A6G U96A C102A U129A | -5.24 |
| A6U C76U | -0.345 |
| U7A C13U G71A C115U G128A | -2.21 |
| U7A C20U G120U | -0.3 |
| U7A C8U G61U | 0.322 |
| U7C C20A G39C G61A | -3.85 |
| A6U A46U C115A | -2.18 |
| A6C C56U A83C U112G | -1.14 |
| A6G C22U A43C G45U C94A C124A | -5.87 |
| A6G G25A C34U G42C G69C U87C C114A C124U | -6.61 |
| A6C C15U G63C | -2.01 |
| U7C C13G C72A | -0.177 |
| U7C C11A G45C G58A A121C | 0.57 |
| A6U C8G G44U C49A G77U G120C U130G | -2.14 |
| A6C C8A U87A | 0.391 |
| A5U U9C C31U G39A G120U | -3.67 |

| Variant | polymerase ribozyme fitness (log ratio) |
| --- | --- |
| U7A G52U G60A G61C C62U | -6.92 |
| A6G A46U U54G | -1.68 |
| A6U G135U | -0.769 |
| A6U C53G | -0.289 |
| U7A U106A | 0.182 |
| A6C G42U G63C C79U | -2.06 |
| A6U G45A G52A A75U | -0.0939 |
| A6U G52U C53G C70U G128C | -2.99 |
| A5U U81A | -1.15 |
| A6U G52U C53G G128C | -3.38 |
| A6C C53A G69C G120A | -1.04 |
| U7A C82A U116C C123A | -2.73 |
| A6G U14G G58A C70U | -1.12 |
| A6G G45A C72U U109G G120U | -5.05 |
| A6C C15U | -1.98 |
| A6C G48U C53U U59G C64U A95G | -3.63 |
| A6C G113U | -3.54 |
| A5U U54C G60A U112C | 1.52 |
| A6U A43U G63C G113U | -3.4 |
| A6U C124U | 1.56 |
| U7A C12G C40G U106C C114G | -5.02 |
| U7C C53G C56A G60A A111G | 0.682 |
| U7C A27U C79U | -3.22 |
| U7A G25A G42U A50U G61A C85G A90C C123U U133G | -8.16 |

| Variant | polymerase ribozyme fitness (log ratio) |
| --- | --- |
| A6C A16C G44C | -3.74 |
| A6U G36C A37G A43G | -2.57 |
| A6U G36A | -0.596 |
| A6G C12U G36U G52U C70U U96G A121C | -2.52 |
| A6G G63U C124A G128U | -1.92 |
| U7A C15A A41C A66C | -4.5 |
| A6U A26G G52A G71U | -3.21 |
| A6C U21A A37G A90G G120U G127U | -0.919 |
| A6C C12A C53U U78C | -1.07 |
| A6G C13G G51A C79G C88A G93C A108U C115U C124U | -7.39 |
| A6U C49A C53A C79A C85U A111C | -3.36 |
| A6C C31G C34U G42U G93C A111C | -6.9 |
| U7A U21C G71U A90G | -0.779 |
| A6C A43U A83U C98U C104U | -2.52 |
| U7C C34A G44C A84U | -4.89 |
| U7A U33A A100G G120C G135A | -3.75 |
| A6U U7C A41G G110A | -1.88 |
| A6U C12G C72U U78C | -0.414 |
| U7C C8G C53G C101A | -0.517 |
| A6C G71C G113U | -4.81 |
| U7C C31U | -4.85 |
| U7A C72G C88A C89G C102A G107A G113A | -6.44 |
| A6U G61C | -1.18 |
| A6U U14G | -1.38 |

| Variant | polymerase ribozyme fitness (log ratio) |
| --- | --- |
| U7A U21G G35A G52C C114U | -5.47 |
| A6G A18U C40G G42U U81C | -4.14 |
| A6C C40U G60A C73G G107U C124U | -5.46 |
| A6G U30C C73U C124A | -1.64 |
| A6U A68G A75U U92A C123A | -4.87 |
| A6G C88U G113U | -2.37 |
| U7A U92A G120A U133A | -0.782 |
| A6U G19C C82U C94A A111C | -4.5 |
| A6G C70A | -2.41 |
| A6U A84C C86G G93U | -2.38 |
| U7A C62U U129A | -0.65 |
| A6U U78G A83C | -0.41 |
| A5U G63C C85A C101A A118U | -2.94 |
| A6U A46C C85G G113A G135C | -3.74 |
| U7C C70U | -1.31 |
| U7C C62U C99G U112G U132C U134A G135U | -6.65 |
| U7A A103C | -4.75 |
| A6U U7C C70A C76G | -2.57 |
| U7C C49A G61U A83C U129C | -0.315 |
| A6C U9G G69U A83G A91C G117U | -0.828 |
| A6C C85A | -2.67 |
| A6U C13A U21C | -1.41 |
| U7C C8U C20A G71A G93U | -5.59 |
| U7C C49U A50C G60U G127A | -0.326 |

| Variant | polymerase ribozyme fitness (log ratio) |
| --- | --- |
| A6U C34G U87A G120A | -3.94 |
| A6C C8U C11U G69U C104G | -5.29 |
| A6U U9C G47A G69A | -2.93 |
| U7A C49U G52U G61A G120A | 0.469 |
| A6U G60C | 0.0676 |
| A6U C28G G58A A100U | -3.49 |
| U7C C22A C82A C89U | -4.93 |
| A6C G57C C72U | -0.529 |
| A5U U59A U92A U129G | -3.92 |
| A6U G93C | -0.28 |
| A6C G39U | -1.84 |
| A6U A26C C34G C64G A111U | -7.61 |
| U7A G36C G52A U55G | -0.803 |
| A6C C80A | -1.52 |
| A6U U30C G93U G120U | -3.6 |
| A6U A50C | 0.0675 |
| A6G U14A C72U C88U G93A | -1.77 |
| A6G U7G A18C G48U C53A G63A C115A U133A | -1.29 |
| A6G A121U U125G | -0.777 |
| A6G G48U U54A G127A | -2.59 |
| U7A G69C A95G | -0.796 |
| A6C C8U C89U | -0.206 |
| U7A G10C U21A C56U | -2.02 |
| A6U G47A C72G A75G | -2.41 |

| Variant | polymerase ribozyme fitness (log ratio) |
| --- | --- |
| U7A C70U | -0.0171 |
| A6U G48A A68G C123A | -2.21 |
| A6C U9G G69U A83G A91C G117U G135A | 0.71 |
| A5U U9C G45A | -0.0819 |
| A6G C85U G113A | -2.51 |
| A6G G77U C82A C104U A121U U130A | 1.36 |
| U7C A37U A41C G47U C53G G65A C85G A95C A111G A118U | -7.71 |
| A6U A46U G110U | -2.57 |
| A6C G48A C82A | -1.56 |
| A6U C15G G61A | -1.82 |
| U7A C70U G77U U92C G117C | -5.47 |
| A6U C40G G51U | -4.16 |
| A5U G71U | -0.497 |
| U7A G10U C64G G93A | -6.26 |
| A6C U78A C79A | -3.63 |
| A6C C40G A95C | -5.15 |
| U7A G47C C62U | -1.37 |
| A6G U112G C114G A119G U131C | -5.15 |
| A6C G71C | -1.18 |
| A6U A29G G44A C82A | -2.51 |
| A6C C15U C34A G39C | -5.02 |
| A6U C11U C124G | 1.11 |
| A6C C76A C79U | -0.8 |
| A6G G45C C94U G120A U126G | -5.4 |

| Variant | polymerase ribozyme fitness (log ratio) |
| --- | --- |
| A6G C12U A43C U54C C56U A66G C72U C73A | -6.56 |
| U7C C8G C62U G93U A95C | -0.906 |
| A6U C72U U96C G117U | -3.88 |
| A6G G10A | 0.127 |
| A6C C13U C53U C85U A105U C124A U126G | -3.62 |
| U7A C56G C101U | 0.801 |
| A6G G44C C49G | -1.68 |
| U7A C13U C15U G44U U59C G77U | -2.18 |
| A6U C8A G52U C53A C72A U92A C101A U130G | -5.85 |
| A6U A41G A91G | -2.5 |
| U7C C62A C99G U112G U132C U134A G135U | -7.59 |
| A6C U7A A27G U78C G113A | -1.35 |
| A6C G52U C70G A74U G120C | -5.83 |
| U7A G61C A91C C114A C115G | -7.29 |
| U7A C11A U14G G45U C53U C70A G113A G120U U133A | -4.43 |
| A6C C11A C85U U112G | -2.47 |
| A6G G48A G52C C85G U112C | -0.453 |
| U7C A16G A29U G63U C97U U109A | -1.24 |
| A6U C53A G63U A100U | -3.98 |
| U7A A46G C70U A111C G113A | -3.8 |
| A6U G63U U78C C97U G120C | -3.08 |
| U7A C8U G107C C124U | -4.43 |
| A6U G10C C12U C49A G69C A90C A91U | -2.98 |
